The target in assay [1] is modified human HLA-G β2M MHC class I complex (HLA-G specific amino acids replaced by HLA-A consensus amino acids) (human). Briefly: SPR (Biacore), reference antibody against degrafted HLA-G complex.
The target in assay [2] is recombinant soluble human HLA-G β2M MHC class I complex, monomer (human). Briefly: SPR (Biacore), reference antibody against monomeric wt HLA-G complex.
The target of assay [3] is human HLA-G expressed on cells (JEG3 naturally; SKOV3 HLA-G+ and PA-TU-8902 HLA-G+ transfectants) (human) (UniProt P17693). Briefly: flow cytometry, JEG3 cells pre-incubated with antibody, competitor ILT2-Fc chimera.

pKd: −log10 of the molar value.

As to MEM-G/11 (antibody), in assay [1], the pKd was 7.89, the koff came out at 0.0012 s⁻¹, the kon is 89000 M⁻¹ s⁻¹ and the t½ was determined as 10 min. In assay [2], the pKd was 7.92, the koff is 0.00085 s⁻¹, the kon came to 74000 M⁻¹ s⁻¹ and the t½ worked out at 14 min.

In assay [1], MEM/G9 (antibody) gave a pKd of 6.52, a koff of 0.036 s⁻¹, a kon of 120000 M⁻¹ s⁻¹ and a t½ of 0.3 min. Moreover, in assay [2], the pKd was 8.11, the koff is 0.0011 s⁻¹, the kon came to 150000 M⁻¹ s⁻¹ and the t½ came out at 10 min. Besides, in assay [3], the Inhibition of ILT2 binding to Jeg3 cells is -27.9%.

Source of the values: patent US20200102389A1.
